According to article doi:10.1101/2025.09.16.676457 (bioRxiv, 2025):

Target: T1, sLgBiT-Lc-GPR25 (without coexpression of TPST1 and TPST2) (Latimeria chalumnae (coelacanth), UniProt H3AQL3 1-365)
T1 sequence (looked up): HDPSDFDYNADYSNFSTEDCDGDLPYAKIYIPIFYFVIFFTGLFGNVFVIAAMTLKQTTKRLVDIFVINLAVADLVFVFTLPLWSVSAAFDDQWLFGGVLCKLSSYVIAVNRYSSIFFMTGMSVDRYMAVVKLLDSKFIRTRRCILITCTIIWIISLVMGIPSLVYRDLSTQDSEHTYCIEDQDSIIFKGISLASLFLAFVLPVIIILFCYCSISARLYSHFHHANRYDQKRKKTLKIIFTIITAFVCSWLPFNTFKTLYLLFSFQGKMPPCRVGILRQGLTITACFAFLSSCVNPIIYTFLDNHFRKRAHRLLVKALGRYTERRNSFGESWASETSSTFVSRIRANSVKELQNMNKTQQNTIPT
Experiment: split reporter

- IC50: ~400 nM
B1: 6×His-Hs-CXCL17 (ligand, human, UniProt Q6UXB2 22-119, looked up)
chain: SSLNPGVARGHRDRGQASRRWLQEGGQECECKDWFLRAPRRKFMTVSGLPKKQCPCDHFKGNVKKTRHQRHHRKPNKHSRACQQFLKQCQLRSFALPL
